Results: paper doi:10.1101/2021.05.20.444958

Test system: His6-DnaA (Escherichia coli K-12?)
Experiment: EMSA

iraD upstream region, 672 bp was tested. Which Kd did it give?
Its Kd is 42 nM.
